Test results as given in patent US7871610B2, “Antibodies to Tie1 ectodomain” (Dyax Corp., priority 2003, dated 2011).
“Also recorded” adds a separate entry of the source.

Legend:
[1] = target: T1, recombinant human Tie1-Fc (Homo sapiens, UniProt P35590); assay: BIAcore, parental and germlined E3b Fabs on human Tie-1/Fc; format: binding; details: parental and germlined E3b Fabs, human Tie-1/Fc
T1 construct: selected against the Tie1 extracellular domain fused to human Fc or to a histidine purification tag
T1 sequence (P35590 22-759 limits assumed): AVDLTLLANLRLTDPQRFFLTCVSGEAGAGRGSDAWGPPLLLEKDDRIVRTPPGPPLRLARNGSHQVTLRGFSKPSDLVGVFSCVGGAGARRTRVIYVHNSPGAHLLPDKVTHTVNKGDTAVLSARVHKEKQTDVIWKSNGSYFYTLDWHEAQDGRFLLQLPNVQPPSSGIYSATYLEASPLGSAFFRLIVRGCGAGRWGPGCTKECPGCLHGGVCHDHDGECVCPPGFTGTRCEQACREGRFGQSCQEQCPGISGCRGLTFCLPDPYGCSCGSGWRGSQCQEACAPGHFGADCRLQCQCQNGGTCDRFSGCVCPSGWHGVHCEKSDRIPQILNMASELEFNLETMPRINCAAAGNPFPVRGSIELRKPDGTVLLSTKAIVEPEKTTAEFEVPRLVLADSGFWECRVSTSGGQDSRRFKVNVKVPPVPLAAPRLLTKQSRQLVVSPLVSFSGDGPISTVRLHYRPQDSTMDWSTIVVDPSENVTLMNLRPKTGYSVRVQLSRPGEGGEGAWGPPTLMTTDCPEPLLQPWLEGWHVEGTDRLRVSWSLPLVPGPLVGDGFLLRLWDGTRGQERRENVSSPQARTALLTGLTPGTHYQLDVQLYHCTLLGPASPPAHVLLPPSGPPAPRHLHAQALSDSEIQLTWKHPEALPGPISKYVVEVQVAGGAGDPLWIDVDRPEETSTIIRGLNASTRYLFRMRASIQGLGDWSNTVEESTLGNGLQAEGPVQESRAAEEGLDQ
Description: Recombinant human Tie-1/Fc was coated on a CM5 chip. The surface of the chip was first activated with a 7-minute pulse of 0.05 M NHS/0.2 M EDC, then Tie-1/Fc (2 μg/ml in 10 mM sodium acetate, pH 4.0) was run over the chip surface until 750 RUs were coated on the surface. All flow cells were subsequently deactivated with a 7-minute pulse of 1 M ethanolamine hydrochloride, pH 8.5. All further experiments were performed in HBS buffer.
The parental and the germlined E3b Fabs were prepared. A series of dilution (50, 25, 12.5, 6.25 and 3.125 nM) was prepared in HBS buffer. Samples were injected at 30 μl/min for 5.3 minutes using the KINJECT™ program. This was followed by a 10-minute dissociation phase, and the remaining Fab was stripped from the surface with a single 18-sec injection of 50 mM NaOH/1 M NaCl.
Sensorgrams were analyzed using the simultaneous ka/kd fitting program from the BIAEVALUATION™ software 3.1 assuming a 1:1 model.

Tie1 = Tie1 (Homo sapiens, UniProt P35590); assay: Tie1 phosphorylation assay in transfected COS1 cells; format: cell-based; details: COS1 cells with V5-tagged full length Tie1, serum starved, E3 IgG 200 ng/ml
Sequence of Tie1 (P35590 22-1138): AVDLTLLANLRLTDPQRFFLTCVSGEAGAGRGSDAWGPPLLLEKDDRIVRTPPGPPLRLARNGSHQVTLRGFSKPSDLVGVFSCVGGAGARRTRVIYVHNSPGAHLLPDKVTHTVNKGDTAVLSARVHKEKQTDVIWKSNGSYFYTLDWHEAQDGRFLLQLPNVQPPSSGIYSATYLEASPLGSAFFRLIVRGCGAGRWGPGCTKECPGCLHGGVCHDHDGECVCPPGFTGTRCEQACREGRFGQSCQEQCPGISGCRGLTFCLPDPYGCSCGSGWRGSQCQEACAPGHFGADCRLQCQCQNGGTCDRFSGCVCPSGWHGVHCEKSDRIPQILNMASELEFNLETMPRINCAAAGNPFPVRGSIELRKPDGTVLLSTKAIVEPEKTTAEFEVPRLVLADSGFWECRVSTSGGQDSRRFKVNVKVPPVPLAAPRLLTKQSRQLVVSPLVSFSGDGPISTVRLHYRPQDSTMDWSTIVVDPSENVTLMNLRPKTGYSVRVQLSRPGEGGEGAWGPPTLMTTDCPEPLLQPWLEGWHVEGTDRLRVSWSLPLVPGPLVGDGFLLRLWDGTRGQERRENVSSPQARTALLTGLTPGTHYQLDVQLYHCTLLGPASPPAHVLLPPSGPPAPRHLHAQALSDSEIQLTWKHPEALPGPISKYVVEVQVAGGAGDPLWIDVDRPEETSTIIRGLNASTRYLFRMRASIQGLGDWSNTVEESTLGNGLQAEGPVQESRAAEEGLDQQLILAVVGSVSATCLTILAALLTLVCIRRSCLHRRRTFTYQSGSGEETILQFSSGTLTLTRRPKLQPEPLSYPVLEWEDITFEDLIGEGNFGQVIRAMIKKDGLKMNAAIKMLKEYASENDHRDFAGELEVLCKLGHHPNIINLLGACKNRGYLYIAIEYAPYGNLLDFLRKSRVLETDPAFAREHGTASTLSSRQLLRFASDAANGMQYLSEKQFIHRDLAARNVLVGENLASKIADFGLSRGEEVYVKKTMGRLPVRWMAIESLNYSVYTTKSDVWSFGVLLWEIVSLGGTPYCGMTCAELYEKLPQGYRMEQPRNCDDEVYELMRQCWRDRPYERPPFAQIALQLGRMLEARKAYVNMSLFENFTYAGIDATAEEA
Description: COS1 cells were transfected with pcDNA3-Tie1-V5. After 24 h of transfection, the cells were serum starved for 8 h and then treated with E3 IgG. For the Tie1 phosphorylation assay, HDMVECs were cultured on 10 cm dishes to near confluence, starved (8-16 h) in serum free medium and stimulated as indicated. After the stimulations, the cells were lysed in lysis buffer (RIPA-DOC: 50 mM Tris-HCl pH 8.0, 150 mM NaCl, 1% Triton-X-100, 0.1% SDS, 0.5% DOC, 10 mM EDTA, supplemented with aprotinin, leupeptin, PMSF and sodium vanadate). Clarified lysates from transfected COS1 cells or HDMVECs were immunoprecipitated with anti-V5 or anti-Tie1 B9, respectively. Proteins were separated by SDS-PAGE, transferred to nitrocellulose and immunoblotted using the anti-phosphotyrosine and anti-Tie1 (R&D systems) antibodies.
To test if the E3 IgG binding to the extracellular region of Tie1 induces autophosphorylation of Tie1, the Tie1 receptor phosphorylation level in response to E3 IgG treatment was studied in transiently transfected COS1 cells and human primary endothelial cells. COS1 cells were transfected with an expression vector containing a V5-tagged full length Tie1 cDNA, and, after serum starvation, the cells were treated with E3 IgG (200 ng/ml). […]

human platelets = assay: Flow cytometry binding to human platelets; details: non-activated human platelets, 2 and 10 μg/ml
Description: To avoid platelet activation, human platelets were isolated from plasma of healthy donors using the platelet GelSep kit (Biocytex, Marseille, France) kit according to the guidelines of the manufacturer. Platelets were activated by the addition of thrombin to a final concentration of 0.8 U/ml. To distinguish activated from non-activated platelets double staining was performed with Tie-1 antibodies/control antibodies and antibody CD42 (total platelets) or CD62 (activated platelets).
After preparation, platelets were resuspended in buffer 2 of the GelSep kit, 10% heat inactivated human serum (incubation buffer) and incubated for 1 hour. […] Platelets were spun down by centrifugation for 10 min at 611 g. Between incubations platelets were washed twice with Buffer 1 of the GelSep kit. Then, Strepatvidin-R-phycoerythrin together with anti-CD42-PercP or anti-CD62-PercP were incubated for 30 minutes at room temperature in incubation buffer After the last incubation and washing detection of bound antibodies was performed by means of flow cytometry on a FACSscan and Epics Altra (Becton Dickinson, Oxnard, Coulter) and results analyzed. Cells were gated on SSC and anti-CD42-PercP for the total platelets in case non-activated platelets were used and on SSC and anti-CD62-PercP for the activated platelets.

B1: E3: human anti-Tie1 antibody from Fab phage library; HC SEQ ID NO:114, LC SEQ ID NO:116 (antibody, V domains shown)
VH: EVQLLESGGGLVQPGGSLRLSCAASGFTFSMYGMVWVRQAPGKGLEWVSVISPSGGNTGYADSVKGRFTISRDNSKNTLYLQVNSLRAEDTAVYYCARAPRGYSYGYYYWGQGTLVTVSSASTKGPSVFPLAPSSKSTSGG
VL: DIQMTQSPLSLSASVGDRVTITCRASQGIGHYLAWYQQKPGKVPKLLIYTASTLQSGVPSRFSGSGSGTDFTLTINSLQPEDVATYYCQQFNSYPHTFGQGTRLDIK
modifications: Synthetically generated peptide
In the case of B1, the “effect of germlining on the affinity against Tie-1/Fc” value [1] is reported as “little or no effect on the affinity”, the “time of stimulation after which Tie1 is tyrosine phosphorylated” value (Tie1) is reported as 10 to 30 min and the “binding to total platelets (CD42)” value (human platelets) is reported as “Only a background number; also recorded: no significant binding to total platelets”.
